Assay [1] addresses Beroe collagen IV NC1 domains (collagenase-solubilised NC1 hexamer) (Beroe (endogenous in whole ctenophore tissue)). The assay is described as follows: SEC; collagenase digest of whole ctenophore tissue on Superdex 200 10/300 GL; elution compared with native, purified placental basement membrane NC1 hexamer run successively; fractions 12 mL to 16.4 mL blotted with NC1-specific monoclonal antibody (JK-2). In general terms: Size exclusion chromatography separates by hydrodynamic size, large species first.

Assay [2] shares this target. Kind of assay: SDS-PAGE under reducing and non-reducing conditions with Western blot; NC1 hexamer fractions from gel filtration; 12% gels, 5% beta-mercaptoethanol or none; for Beroe reduction in TBS with various concentrations of DTT (30 min, 37°C), alkylation with iodoacetamide, non-reducing SDS-PAGE; blot with JK-2. (In general: Immunoblotting shows a protein as a band on a membrane.)

Assay [3] concerns the target Mnemiopsis collagen IV NC1 domains (collagenase-solubilised NC1 hexamer) (Mnemiopsis (endogenous in whole ctenophore tissue)). The assay is described as follows: SEC; collagenase digest of whole ctenophore tissue on Superdex 200 10/300 GL; elution compared with native, purified placental basement membrane NC1 hexamer run successively; fractions 12 mL to 16.4 mL blotted with NC1-specific monoclonal antibody (JK-2).

Assay [4] has the same target. Kind of assay: SDS-PAGE under reducing and non-reducing conditions with Western blot; NC1 hexamer fractions from gel filtration; 12% gels, 5% beta-mercaptoethanol or none; for Beroe reduction in TBS with various concentrations of DTT (30 min, 37°C), alkylation with iodoacetamide, non-reducing SDS-PAGE; blot with JK-2.
Assay [5] concerns the target Pleurobrachia collagen IV NC1 domains (collagenase-solubilised NC1 hexamer) (Pleurobrachia (endogenous in whole ctenophore tissue)). Kind of assay: SEC; collagenase digest of whole ctenophore tissue on Superdex 200 10/300 GL; elution compared with native, purified placental basement membrane NC1 hexamer run successively; fractions 12 mL to 16.4 mL blotted with NC1-specific monoclonal antibody (JK-2).

For assay [6] the target is unchanged. The assay is described as follows: SDS-PAGE under reducing and non-reducing conditions with Western blot; NC1 hexamer fractions from gel filtration; 12% gels, 5% beta-mercaptoethanol or none; for Beroe reduction in TBS with various concentrations of DTT (30 min, 37°C), alkylation with iodoacetamide, non-reducing SDS-PAGE; blot with JK-2.

What is called stoichiometry N is a count of units in the complex or per binding partner. Regarding “Beroe collagen IV NC1 domains (collagenase-solubilised NC1 hexamer)”, the stoichiometry N was 6 in assay [1] and 2 in assay [2].
As for “Mnemiopsis collagen IV NC1 domains (collagenase-solubilised NC1 hexamer)”, the stoichiometry N is 6 in assay [3] and 2 in assay [4].
For the substance “Pleurobrachia collagen IV NC1 domains (collagenase-solubilised NC1 hexamer)”, the stoichiometry N in assay [5] is 6; in assay [6], 2.
